Measured values: paper PMC9482650, “Quantitative fragmentomics allow affinity mapping of interactomes” (Nature Communications, 2022)

T1: APBA2_2, Q99767
T1 sequence (Q99767 654-744, limits assumed, looked up): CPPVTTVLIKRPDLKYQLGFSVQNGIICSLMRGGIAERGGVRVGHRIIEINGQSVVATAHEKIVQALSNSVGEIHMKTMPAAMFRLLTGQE

T2: APBA3_1, O96018
T2 sequence (O96018 389-490, limits assumed, looked up): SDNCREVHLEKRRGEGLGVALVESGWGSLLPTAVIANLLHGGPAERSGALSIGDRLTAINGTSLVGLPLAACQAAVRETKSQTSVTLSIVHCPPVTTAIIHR

T3: CARD11, Q9BXL7
T3 sequence (Q9BXL7 662-765, limits assumed, looked up): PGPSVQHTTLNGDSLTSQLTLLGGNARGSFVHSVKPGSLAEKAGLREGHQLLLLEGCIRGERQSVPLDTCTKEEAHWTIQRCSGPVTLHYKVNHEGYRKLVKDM

T4: DLG3_1, Q92796
T4 sequence (Q92796 125-227, limits assumed, looked up): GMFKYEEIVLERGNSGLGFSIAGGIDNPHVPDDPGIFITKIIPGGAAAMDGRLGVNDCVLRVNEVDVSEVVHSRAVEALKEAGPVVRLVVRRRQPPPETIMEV

T5: DVL3, Q92997
T5 sequence (Q92997 244-331, limits assumed, looked up): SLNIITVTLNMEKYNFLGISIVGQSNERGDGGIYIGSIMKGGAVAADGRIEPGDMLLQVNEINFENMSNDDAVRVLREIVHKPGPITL

T6: GRIP1_5, Q9Y3R0
T6 sequence (Q9Y3R0 568-668, limits assumed, looked up): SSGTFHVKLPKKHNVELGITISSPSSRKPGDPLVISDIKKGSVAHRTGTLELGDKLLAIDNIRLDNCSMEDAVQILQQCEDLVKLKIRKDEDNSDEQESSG

T7: PDZD7_3, Q9H5P4
T7 sequence (Q9H5P4 857-944, limits assumed, looked up): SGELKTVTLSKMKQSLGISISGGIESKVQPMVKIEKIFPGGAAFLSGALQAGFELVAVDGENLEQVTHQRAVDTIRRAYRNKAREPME

T8: SHANK1, Q9Y566
T8 sequence (Q9Y566 658-767, limits assumed, looked up): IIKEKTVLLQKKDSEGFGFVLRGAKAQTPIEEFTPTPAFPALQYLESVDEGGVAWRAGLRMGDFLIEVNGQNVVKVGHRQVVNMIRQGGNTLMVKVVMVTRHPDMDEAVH

T9: SIPA1L2, Q9P2F8
T9 sequence (Q9P2F8 945-1036, limits assumed, looked up): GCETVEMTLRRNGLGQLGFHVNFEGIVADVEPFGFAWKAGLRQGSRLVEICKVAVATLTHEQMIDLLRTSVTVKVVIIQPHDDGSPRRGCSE

T10: SNTA1, Q13424
T10 sequence (Q13424 82-180, limits assumed, looked up): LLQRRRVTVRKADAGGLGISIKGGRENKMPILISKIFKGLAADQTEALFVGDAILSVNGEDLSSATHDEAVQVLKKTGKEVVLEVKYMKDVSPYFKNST

T11: SNTB1, Q13884
T11 sequence (Q13884 107-205, limits assumed, looked up): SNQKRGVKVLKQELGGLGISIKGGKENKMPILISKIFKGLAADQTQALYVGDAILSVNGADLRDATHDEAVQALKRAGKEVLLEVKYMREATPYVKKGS

T12: SYNJ2BP, P57105
T12 sequence (P57105 8-110, limits assumed, looked up): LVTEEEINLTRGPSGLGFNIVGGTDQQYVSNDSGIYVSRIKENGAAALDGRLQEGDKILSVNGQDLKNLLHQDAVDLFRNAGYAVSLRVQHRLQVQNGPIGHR

T13: TJP3_3, O95049
T13 sequence (O95049 375-456, limits assumed, looked up): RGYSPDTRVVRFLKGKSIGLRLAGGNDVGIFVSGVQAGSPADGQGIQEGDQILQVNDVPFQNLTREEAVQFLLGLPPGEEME


How the values were obtained:
Experiment in all cases: holdup assay
Set-up in all cases: key: below the threshold = too weak to quantify, mostly under pKd 3.1 to 4
Details in all cases: plain residues with an end cap or a label only (N-terminal biotin on a linker: ado-ado)
APBA2_2, Q99767 = biological target: T1, APBA2_2, Q99767
APBA3_1, O96018 = biological target: T2, APBA3_1, O96018
CARD11, Q9BXL7 = biological target: T3, CARD11, Q9BXL7
DLG1_1, Q12959 = biological target: DLG1_1, Q12959
DLG3_1, Q92796 = biological target: T4, DLG3_1, Q92796
DLG5_1, Q8TDM6 = biological target: DLG5_1, Q8TDM6
DVL3, Q92997 = biological target: T5, DVL3, Q92997
GRID2IP_2, A4D2P6 = biological target: GRID2IP_2, A4D2P6
GRIP1_5, Q9Y3R0 = biological target: T6, GRIP1_5, Q9Y3R0
GRIP2_4, Q9C0E4 = biological target: GRIP2_4, Q9C0E4
HTRA1, Q92743 = biological target: HTRA1, Q92743
Inadl_4, Q8NI35 = biological target: Inadl_4, Q8NI35
Inadl_6, Q8NI35 = biological target: Inadl_6, Q8NI35
MAGI2_5, Q86UL8 = biological target: MAGI2_5, Q86UL8
MAGI2_6, Q86UL8 = biological target: MAGI2_6, Q86UL8
MAST1, Q9Y2H9 = biological target: MAST1, Q9Y2H9
PDLIM1, O00151 = biological target: PDLIM1, O00151
PDZD7_3, Q9H5P4 = biological target: T7, PDZD7_3, Q9H5P4
SCRIB_2, Q14160 = biological target: SCRIB_2, Q14160
SHANK1, Q9Y566 = biological target: T8, SHANK1, Q9Y566
SIPA1L2, Q9P2F8 = biological target: T9, SIPA1L2, Q9P2F8
SNTA1, Q13424 = biological target: T10, SNTA1, Q13424
SNTB1, Q13884 = biological target: T11, SNTB1, Q13884
SYNJ2BP, P57105 = biological target: T12, SYNJ2BP, P57105
TJP3_3, O95049 = biological target: T13, TJP3_3, O95049

Sequence of SCRIB_2, Q14160 (Q14160 857-960): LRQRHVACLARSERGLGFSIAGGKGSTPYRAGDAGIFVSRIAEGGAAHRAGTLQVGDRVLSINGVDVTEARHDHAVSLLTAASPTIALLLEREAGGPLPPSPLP
Sequence of GRID2IP_2, A4D2P6 (A4D2P6 272-370): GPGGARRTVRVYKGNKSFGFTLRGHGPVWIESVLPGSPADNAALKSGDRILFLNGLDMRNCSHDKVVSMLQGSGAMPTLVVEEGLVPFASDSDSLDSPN
Sequence of Inadl_6, Q8NI35 (Q8NI35 1058-1167): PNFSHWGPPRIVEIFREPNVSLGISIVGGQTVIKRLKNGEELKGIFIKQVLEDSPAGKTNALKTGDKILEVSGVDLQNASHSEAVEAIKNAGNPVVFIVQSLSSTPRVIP
Sequence of MAGI2_6, Q86UL8 (Q86UL8 1141-1229): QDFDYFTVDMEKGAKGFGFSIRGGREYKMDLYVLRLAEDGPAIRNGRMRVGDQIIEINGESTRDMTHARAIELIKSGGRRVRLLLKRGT
Sequence of HTRA1, Q92743 (Q92743 360-477): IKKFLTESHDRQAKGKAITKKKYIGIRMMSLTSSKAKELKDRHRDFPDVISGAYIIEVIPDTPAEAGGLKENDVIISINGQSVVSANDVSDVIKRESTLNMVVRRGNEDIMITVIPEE
Sequence of MAST1, Q9Y2H9 (Q9Y2H9 962-1065): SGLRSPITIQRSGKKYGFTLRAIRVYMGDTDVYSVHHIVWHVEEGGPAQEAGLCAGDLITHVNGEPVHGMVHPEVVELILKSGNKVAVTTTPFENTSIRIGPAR
Sequence of GRIP2_4, Q9C0E4 (Q9C0E4 446-548): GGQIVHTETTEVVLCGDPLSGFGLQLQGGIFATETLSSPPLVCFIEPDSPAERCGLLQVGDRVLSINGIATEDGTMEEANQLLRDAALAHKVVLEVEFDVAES
Sequence of MAGI2_5, Q86UL8 (Q86UL8 915-1017): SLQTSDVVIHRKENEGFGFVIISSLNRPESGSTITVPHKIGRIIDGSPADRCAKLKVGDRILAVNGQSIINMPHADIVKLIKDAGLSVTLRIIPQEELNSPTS
Sequence of Inadl_4, Q8NI35 (Q8NI35 547-651): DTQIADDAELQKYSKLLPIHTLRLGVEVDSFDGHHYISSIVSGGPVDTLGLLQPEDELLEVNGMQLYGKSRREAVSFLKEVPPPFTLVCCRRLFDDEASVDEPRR
Sequence of DLG5_1, Q8TDM6 (Q8TDM6 617-713): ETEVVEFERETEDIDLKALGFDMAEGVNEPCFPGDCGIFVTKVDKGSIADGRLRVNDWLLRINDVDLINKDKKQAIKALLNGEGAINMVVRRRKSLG
Sequence of PDLIM1, O00151 (O00151 1-87): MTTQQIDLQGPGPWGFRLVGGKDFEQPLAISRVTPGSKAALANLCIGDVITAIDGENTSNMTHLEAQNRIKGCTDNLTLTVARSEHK

Row | pKd (APBA2_2, Q99767) | pKd (APBA3_1, O96018) | pKd (CARD11, Q9BXL7) | pKd (DLG1_1, Q12959) | pKd (DLG3_1, Q92796) | pKd (DLG5_1, Q8TDM6) | pKd (DVL3, Q92997) | pKd (GRID2IP_2, A4D2P6) | pKd (GRIP1_5, Q9Y3R0) | pKd (GRIP2_4, Q9C0E4) | pKd (HTRA1, Q92743) | pKd (Inadl_4, Q8NI35) | pKd (Inadl_6, Q8NI35) | pKd (MAGI2_5, Q86UL8) | pKd (MAGI2_6, Q86UL8) | pKd (MAST1, Q9Y2H9) | pKd (PDLIM1, O00151) | pKd (PDZD7_3, Q9H5P4) | pKd (SCRIB_2, Q14160) | pKd (SHANK1, Q9Y566) | Binder | other results
1 | below the threshold | below the threshold | below the threshold | below the threshold | below the threshold | below the threshold | below the threshold | below the threshold | below the threshold | below the threshold | 4.48 | below the threshold | below the threshold | below the threshold | below the threshold | 3.95 | below the threshold | below the threshold | below the threshold | below the threshold | EKKTLIGIKL [GOT1L1, Q8NHS2] | pKd (SIPA1L2, Q9P2F8): below the threshold; pKd (SNTA1, Q13424): below the threshold; pKd (SNTB1, Q13884): below the threshold; pKd (SYNJ2BP, P57105): below the threshold; pKd (TJP3_3, O95049): below the threshold
2 | below the threshold | below the threshold | below the threshold | below the threshold | below the threshold | 3.48 | below the threshold | 3.84 | 3.53 | below the threshold | 4.27 | below the threshold | 3.81 | below the threshold | 4.26 | 3.93 | 3.54 | 3.56 | below the threshold | 3.51 | PRAEAEDSFL [PDGFRB, P09619] | pKd (SIPA1L2, Q9P2F8): below the threshold; pKd (SNTA1, Q13424): 3.59; pKd (SNTB1, Q13884): 3.64; pKd (SYNJ2BP, P57105): 3.93; pKd (TJP3_3, O95049): 3.49

The next lines start with the binder.

Row | Binder | pKd (APBA2_2, Q99767) | pKd (APBA3_1, O96018) | pKd (CARD11, Q9BXL7) | pKd (DLG1_1, Q12959) | pKd (DLG3_1, Q92796) | pKd (DLG5_1, Q8TDM6) | pKd (DVL3, Q92997) | pKd (GRID2IP_2, A4D2P6) | pKd (GRIP1_5, Q9Y3R0) | pKd (GRIP2_4, Q9C0E4) | pKd (HTRA1, Q92743) | pKd (Inadl_4, Q8NI35) | pKd (Inadl_6, Q8NI35) | pKd (MAGI2_5, Q86UL8) | pKd (MAGI2_6, Q86UL8) | pKd (MAST1, Q9Y2H9) | pKd (PDLIM1, O00151) | pKd (PDZD7_3, Q9H5P4) | pKd (SCRIB_2, Q14160) | pKd (SHANK1, Q9Y566) | other results
3 | VKPQVSESKL [ACOT8, O14734] | below the threshold | below the threshold | below the threshold | below the threshold | below the threshold | below the threshold | below the threshold | 3.55 | below the threshold | below the threshold | below the threshold | below the threshold | below the threshold | below the threshold | below the threshold | 4.77 | below the threshold | 4.15 | 3.52 | 4.01 | pKd (SIPA1L2, Q9P2F8): below the threshold; pKd (SNTA1, Q13424): below the threshold; pKd (SNTB1, Q13884): 3.85; pKd (SYNJ2BP, P57105): 3.75; pKd (TJP3_3, O95049): below the threshold
4 | EALLQMESVA [CAVIN3, Q969G5] | 3.61 | below the threshold | below the threshold | below the threshold | below the threshold | below the threshold | below the threshold | below the threshold | below the threshold | below the threshold | 3.93 | below the threshold | below the threshold | below the threshold | below the threshold | 3.86 | below the threshold | below the threshold | below the threshold | below the threshold | pKd (SIPA1L2, Q9P2F8): below the threshold; pKd (SNTA1, Q13424): below the threshold; pKd (SNTB1, Q13884): below the threshold; pKd (SYNJ2BP, P57105): 3.52; pKd (TJP3_3, O95049): below the threshold
